Laboratory results as given in article PMC7136618, “Defective nucleotide-dependent assembly and membrane fusion in Mfn2 CMT2A variants improved by Bax” (Life Science Alliance, 2020).
Residue numbers refer to the chain shown, from its start. Names and notes keep the numbering of the source.

B1: Mfn2^S378P with a C-terminal 3×FLAG tag (natural protein, UniProt Q80U63 1-757, looked up)
chain: MSLLFSRCNSIVTVKKDKRHMAEVNASPLKHFVTAKKKINGIFEQLGAYIQESASFLEDTHRNTELDPVTTEEQVLDVKGYLSKVRGISEVLARRHMKVAFFGRTSNGKSTVINAMLWDKVLPSGIGHTTNCFLRVGGTDGHEAFLLTEGSEEKKSVKTVNQLAHALHQDEQLHAGSMVSVMWPNSKCPLLKDDLVLMDSPGIDVTTELDSWIDKFCLDADVFVLVANSESTLMQTEKQFFHKVSERLSRPNIFILNNRWDASASEPEYMEEVRRQHMERCTSFLVDELGVVDRAQAGDRIFFVSAKEVLSARVQKAQGMPEGGGALAEGFQVRMFEFQNFERQFEECISQSAVKTKFEQHTVRAKQIAEAVRLIMDPLHIAAQEQRVYCLEMREERQDRLRFIDKQLELLAQDYKLRIKQITEEVERQVSTAMAEEIRRLSVLVDEYQMDFHPSPVVLKVYKNELHRHIEEGLGRNLSDRCSTAIASSLQTMQQDMIDGLKPLLPVSMRNQIDMLVPRQCFSLSYDLNCDKLCADFQEDIEFHFSLGWTMLVNRFLGPKNSRRALLGYSDQVQRPLPLTPANPSMPPLPQSSLTQEELMVSMVTGLASLTSRTSMGILVVGGVVWKAVGWRLIALSFGLYGLLYVYERLTWTTKAKERAFKRQFVEYASEKLQLIISYTGSNCSHQVQQELSGTFAHLCQQVDITRDNLEQEIAAMNKKVEALDSLQSRAKLLRNKAGWLDSELNMFTHQYLQPSR
notes: Mitofusin 2 (Mfn2) with the CMT2A-associated substitution S378P; CMT2A-associated (patient) substitution; also called Mfn2-FLAG variant S378P; source: Mfn2-null MEFs, retroviral transduction, clonal population; isolated mitochondria, lysed; not shown: 3×FLAG, C-terminal, kept
B2: Mfn2^A383V with a C-terminal 3×FLAG tag (natural protein, UniProt Q80U63 1-757, looked up)
chain: B1 chain with P378S, A383V
notes: Mitofusin 2 (Mfn2) with the CMT2A-associated substitution A383V; CMT2A-associated (patient) substitution; also called Mfn2-FLAG variant A383V; source: Mfn2-null MEFs, retroviral transduction, clonal population; isolated mitochondria, lysed; not shown: 3×FLAG, C-terminal, kept
B3: Mfn2^Q386P with a C-terminal 3×FLAG tag (natural protein, UniProt Q80U63 1-757, looked up)
chain: B1 chain with P378S, Q386P
notes: Mitofusin 2 (Mfn2) with the CMT2A-associated substitution Q386P; CMT2A-associated (patient) substitution; also called Mfn2-FLAG variant Q386P; source: Mfn2-null MEFs, retroviral transduction, clonal population; isolated mitochondria, lysed; not shown: 3×FLAG, C-terminal, kept
B4: Mfn2^C390F with a C-terminal 3×FLAG tag (natural protein, UniProt Q80U63 1-757, looked up)
chain: B1 chain with P378S, C390F
notes: Mitofusin 2 (Mfn2) with the CMT2A-associated substitution C390F; CMT2A-associated (patient) substitution; also called Mfn2-FLAG variant C390F; source: Mfn2-null MEFs, retroviral transduction, clonal population; isolated mitochondria, lysed; not shown: 3×FLAG, C-terminal, kept

Key:
[1] = biological target: Mfn2^WT with a C-terminal 3×FLAG tag (UniProt Q80U63); experiment: native gel or EMSA; BN-PAGE of untreated isolated mitochondria, lysed in 1% digitonin; 4–16% Bis-Tris native gel at 4°C; anti-FLAG blot
[2] = biological target: the molecule itself; experiment: as above

Molecule	stoichiometry N [1]	stoichiometry N [2]
Mfn2^WT with a C-terminal 3×FLAG tag (from UniProt Q80U63 1-757) (natural protein)	2	–
B1	–	2
B2	–	2
B3	–	2
B4	–	2
